In patent US7256012B2, “Fluorogenic protease substrates based on dye-dimerization” (3M Innovative Properties Company, priority 1997, dated 2007):

Biological target: T1, trypsin (Bos taurus, UniProt P00760)
T1 construct: gene PRSS1
T1 sequence (P00760 24-246): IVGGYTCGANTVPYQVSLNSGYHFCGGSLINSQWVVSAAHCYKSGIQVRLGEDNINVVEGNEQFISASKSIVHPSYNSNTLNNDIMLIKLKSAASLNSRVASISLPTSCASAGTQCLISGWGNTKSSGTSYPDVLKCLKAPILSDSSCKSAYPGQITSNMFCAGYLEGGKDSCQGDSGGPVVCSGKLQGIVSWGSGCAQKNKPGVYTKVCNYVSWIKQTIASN
Assay: Hydrolysis of fluorogenic protease substrate by purified enzyme (trypsin), fluorescence intensity
Assay type: biochemical
Conditions: for Average ratio w/ trypsin to w/o trypsin: average over emission 570-585 nm
Procedure: Enzymatic hydrolysis of the substrate from Example 1 was carried out in 50 mM carbonate buffer, pH 8.9 at room temperature. Fluorescence intensity of the solution prior to treatment with trypsin and after treatment with trypsin is shown in Table 1, for excitation wavelengths of 360 nm, 522 nm, 530 nm, and 553 nm, respectively. […] This is a characteristic of dye dimerization or stacking, as described above. […] Both the fluorescence and absorption results provided convincing evidence that ground-state interactions existed between dye molecules in the conjugate and became diminished after enzymatic cleavage.

[1] = Excitation 530 nm, emission 570 nm
[2] = Excitation 530 nm, emission 571 nm
[3] = Excitation 530 nm, emission 572 nm
[4] = Excitation 530 nm, emission 573 nm
[5] = Excitation 530 nm, emission 574 nm
[6] = Excitation 530 nm, emission 575 nm
[7] = Excitation 530 nm, emission 576 nm
[8] = Excitation 530 nm, emission 577 nm
[9] = Excitation 530 nm, emission 578 nm
[10] = Excitation 530 nm, emission 579 nm
[11] = Excitation 530 nm, emission 580 nm
[12] = Excitation 530 nm, emission 581 nm
[13] = Excitation 530 nm, emission 582 nm
[14] = Excitation 530 nm, emission 583 nm
[15] = Excitation 530 nm, emission 584 nm
[16] = Excitation 530 nm, emission 585 nm
[17] = Excitation 553 nm, emission 570 nm
[18] = Excitation 553 nm, emission 571 nm
[19] = Excitation 553 nm, emission 572 nm
[20] = Excitation 553 nm, emission 573 nm
[21] = Excitation 553 nm, emission 574 nm
[22] = Excitation 553 nm, emission 575 nm
[23] = Excitation 553 nm, emission 576 nm
[24] = Excitation 553 nm, emission 577 nm
[25] = Excitation 553 nm, emission 578 nm
[26] = Excitation 553 nm, emission 579 nm
[27] = Excitation 553 nm, emission 580 nm
[28] = Excitation 553 nm, emission 581 nm
[29] = Excitation 553 nm, emission 582 nm
[30] = Excitation 553 nm, emission 583 nm
[31] = Excitation 553 nm, emission 584 nm
[32] = Excitation 553 nm, emission 585 nm

Substance: TMR-Val-Pro-Arg-Gly-Lys-TMR (XPRGX; not fully specified; TMR dye at both ends) [T-VPRGK-T]
- Average ratio w/ trypsin to w/o trypsin (Excitation 530 nm): 27
- Fluorescence intensity w/ trypsin [1]: 46615
- Fluorescence intensity w/o trypsin [1]: 1687
- ratio w/ trypsin to w/o trypsin [1]: 28
- Fluorescence intensity w/ trypsin [2]: 48314
- Fluorescence intensity w/o trypsin [2]: 1718
- ratio w/ trypsin to w/o trypsin [2]: 28
- Fluorescence intensity w/ trypsin [3]: 49955
- Fluorescence intensity w/o trypsin [3]: 1819
- ratio w/ trypsin to w/o trypsin [3]: 27
- Fluorescence intensity w/ trypsin [4]: 50871
- Fluorescence intensity w/o trypsin [4]: 1844
- ratio w/ trypsin to w/o trypsin [4]: 28
- Fluorescence intensity w/ trypsin [5]: 52163
- Fluorescence intensity w/o trypsin [5]: 1904
- ratio w/ trypsin to w/o trypsin [5]: 27
- Fluorescence intensity w/ trypsin [6]: 52681
- Fluorescence intensity w/o trypsin [6]: 1895
- ratio w/ trypsin to w/o trypsin [6]: 28
- Fluorescence intensity w/ trypsin [7]: 52855
- Fluorescence intensity w/o trypsin [7]: 1968
- ratio w/ trypsin to w/o trypsin [7]: 27
- Fluorescence intensity w/ trypsin [8]: 53752
- Fluorescence intensity w/o trypsin [8]: 1939
- ratio w/ trypsin to w/o trypsin [8]: 28
- Fluorescence intensity w/ trypsin [9]: 53611
- Fluorescence intensity w/o trypsin [9]: 1970
- ratio w/ trypsin to w/o trypsin [9]: 27
- Fluorescence intensity w/ trypsin [10]: 53534
- Fluorescence intensity w/o trypsin [10]: 2026
- ratio w/ trypsin to w/o trypsin [10]: 26
- Fluorescence intensity w/ trypsin [11]: 53414
- Fluorescence intensity w/o trypsin [11]: 1973
- ratio w/ trypsin to w/o trypsin [11]: 27
- Fluorescence intensity w/ trypsin [12]: 53190
- Fluorescence intensity w/o trypsin [12]: 1985
- ratio w/ trypsin to w/o trypsin [12]: 27
- Fluorescence intensity w/ trypsin [13]: 52569
- Fluorescence intensity w/o trypsin [13]: 1948
- ratio w/ trypsin to w/o trypsin [13]: 27
- Fluorescence intensity w/ trypsin [14]: 51719
- Fluorescence intensity w/o trypsin [14]: 1926
- ratio w/ trypsin to w/o trypsin [14]: 27
- Fluorescence intensity w/ trypsin [15]: 50705
- Fluorescence intensity w/o trypsin [15]: 1905
- ratio w/ trypsin to w/o trypsin [15]: 27
- Fluorescence intensity w/ trypsin [16]: 49629
- Fluorescence intensity w/o trypsin [16]: 1820
- ratio w/ trypsin to w/o trypsin [16]: 27
- Average ratio w/ trypsin to w/o trypsin (Excitation 553 nm): 25
- Fluorescence intensity w/ trypsin [17]: 82385
- Fluorescence intensity w/o trypsin [17]: 3301
- ratio w/ trypsin to w/o trypsin [17]: 25
- Fluorescence intensity w/ trypsin [18]: 85120
- Fluorescence intensity w/o trypsin [18]: 3402
- ratio w/ trypsin to w/o trypsin [18]: 25
- Fluorescence intensity w/ trypsin [19]: 87845
- Fluorescence intensity w/o trypsin [19]: 3457
- ratio w/ trypsin to w/o trypsin [19]: 25
- Fluorescence intensity w/ trypsin [20]: 89719
- Fluorescence intensity w/o trypsin [20]: 3658
- ratio w/ trypsin to w/o trypsin [20]: 25
- Fluorescence intensity w/ trypsin [21]: 91555
- Fluorescence intensity w/o trypsin [21]: 3649
- ratio w/ trypsin to w/o trypsin [21]: 25
- Fluorescence intensity w/ trypsin [22]: 93001
- Fluorescence intensity w/o trypsin [22]: 3802
- ratio w/ trypsin to w/o trypsin [22]: 24
- Fluorescence intensity w/ trypsin [23]: 94046
- Fluorescence intensity w/o trypsin [23]: 3827
- ratio w/ trypsin to w/o trypsin [23]: 25
- Fluorescence intensity w/ trypsin [24]: 94816
- Fluorescence intensity w/o trypsin [24]: 3816
- ratio w/ trypsin to w/o trypsin [24]: 25
- Fluorescence intensity w/ trypsin [25]: 94516
- Fluorescence intensity w/o trypsin [25]: 3806
- ratio w/ trypsin to w/o trypsin [25]: 25
- Fluorescence intensity w/ trypsin [26]: 94662
- Fluorescence intensity w/o trypsin [26]: 3962
- ratio w/ trypsin to w/o trypsin [26]: 24
- Fluorescence intensity w/ trypsin [27]: 93715
- Fluorescence intensity w/o trypsin [27]: 3695
- ratio w/ trypsin to w/o trypsin [27]: 25
- Fluorescence intensity w/ trypsin [28]: 93189
- Fluorescence intensity w/o trypsin [28]: 3825
- ratio w/ trypsin to w/o trypsin [28]: 24
- Fluorescence intensity w/ trypsin [29]: 92281
- Fluorescence intensity w/o trypsin [29]: 3736
- ratio w/ trypsin to w/o trypsin [29]: 25
- Fluorescence intensity w/ trypsin [30]: 91125
- Fluorescence intensity w/o trypsin [30]: 3724
- ratio w/ trypsin to w/o trypsin [30]: 24
- Fluorescence intensity w/ trypsin [31]: 89415
- Fluorescence intensity w/o trypsin [31]: 3593
- ratio w/ trypsin to w/o trypsin [31]: 25
- Fluorescence intensity w/ trypsin [32]: 87910
- Fluorescence intensity w/o trypsin [32]: 3449
- ratio w/ trypsin to w/o trypsin [32]: 25
- fluorescence intensity of the cleaved substrate solution relative to the intact substrate solution (maximum) (excitation 360-553 nm, emission wavelengths from 570 to 585 nm): ≤ 29 times
